Assay results taken from US20040266664A1 (YALE UNIVERSITY, published 2004).
Primed or numbered codes have the meaning given here. [ ]: non-standard residue; d: D form. α′‑methyl‑α′,β′‑epoxide = C-terminal α′-methyl-α′,β′-epoxyketone; hPhe = N[C@@H](CCc1ccccc1)C(=O)O; Nle = CCCC[C@H](N)C(=O)O

What follows are binders tested against proteasome in bovine aortic endothelial (BAE) cells (bovine) (assay: cell-based or functional assay).

| Binder | IC50, inhibition of BAE cell proliferation ([methyl-3H]-thymidine incorporation) |
| --- | --- |
| Ac-ALLL-{α′‑methyl‑α′,β′‑epoxide} [Ac-ALLL-epoxide] | 83 nM |
| Ac-LLFL-{α′‑methyl‑α′,β′‑epoxide} [Ac-LLFL-epoxide] | 7 nM |
| Ac-LFLL-{α′‑methyl‑α′,β′‑epoxide} [Ac-LFLL-epoxide] | 16 nM |
| Ac-LALL-{α′‑methyl‑α′,β′‑epoxide} [Ac-LALL-epoxide] | 700 nM |

Further lines, results first:

| IC50, inhibition of BAE cell proliferation ([methyl-3H]-thymidine incorporation) | Binder |
| --- | --- |
| 34 nM | Ac-LLAL-{α′‑methyl‑α′,β′‑epoxide} [Ac-LLAL-epoxide] |
| 20 nM | Ac-[hPhe]LFL-{α′‑methyl‑α′,β′‑epoxide} [compound 16] |

Molecular target: proteasome in bovine aortic endothelial (BAE) cells (bovine)
Assay: cell-based or functional assay
Remark: another data set of the same source

| Binder | IC50, inhibition of BAE cell proliferation |
| --- | --- |
| isooctanoyl-Pro-Phe-Leu-{α′,β′‑epoxide with α′‑methyl (epoxyketone)} (also: C-terminal Leu as α′,β′-epoxyketone (epoxide) with α′-methyl substituent) [Isooctanioc-PFL-Ex] | 600 nM |
| Ac-GPFL-{α′‑methyl‑α′,β′‑epoxide} [Ac-GPFL-Ex] | 58000 nM |

More lines, now with the values ahead:

| IC50, inhibition of BAE cell proliferation | Binder |
| --- | --- |
| 400 nM | {N‑dimethylaminobenzoyl}-Pro-Phe-Leu-{α′,β′‑epoxide with α′‑methyl (epoxyketone)} (also: C-terminal Leu as α′,β′-epoxyketone (epoxide) with α′-methyl substituent) [N-dimethylaminobenzoyl-PFL-EX] |
| 53000 nM | Ac-[Nle]PFL-{α′‑methyl‑α′,β′‑epoxide} [Ac-NorLPFL-Ex] |
| 400 nM | pyrazinecarbonyl-Pro-Phe-Leu-{α′,β′‑epoxide with α′‑methyl (epoxyketone)} (also: C-terminal Leu as α′,β′-epoxyketone (epoxide) with α′-methyl substituent) [Pyrazinecarbonyl-PFL-Ex] |
